Legend:
Assay in all cases: ELISA
[1] = target: T1, recombinant mouse TIGIT IgV domain (UniProt P86176 29-145)
T1 chain: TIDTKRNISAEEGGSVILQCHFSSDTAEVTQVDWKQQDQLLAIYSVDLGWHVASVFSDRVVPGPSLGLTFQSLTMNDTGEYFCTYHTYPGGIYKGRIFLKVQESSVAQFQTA

[2] = target: T2, recombinant human TIGIT IgV domain (UniProt Q495A1 22-141)
T2 chain: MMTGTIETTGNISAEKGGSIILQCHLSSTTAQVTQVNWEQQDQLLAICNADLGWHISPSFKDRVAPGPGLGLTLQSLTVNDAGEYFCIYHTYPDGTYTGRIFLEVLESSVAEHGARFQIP

cyno TIGIT IgV domain = target: cyno TIGIT IgV domain
Chain of cyno TIGIT IgV domain (Q495A1 other isoform, or with tags, fused parts or gaps): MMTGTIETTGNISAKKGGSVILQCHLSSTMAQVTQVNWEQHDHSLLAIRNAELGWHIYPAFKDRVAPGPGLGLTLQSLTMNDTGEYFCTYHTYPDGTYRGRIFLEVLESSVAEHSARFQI

Binder	EC50 [1] [nM]	EC50 [2] [nM]	EC50 (cyno TIGIT IgV domain) [nM]
2C9 (antibody, V domains shown) VH: DIQLKQSGAELVRPGASVKLSCKASGYTFTDSYINWVKQRPGQGLEWIARFYPGSGNTYYNEKFKGKATLTAEKSSSTAYMQLSSLTSEDSAVYFCAREAWLLFYGMDYWGQGTTVTVSS VL: DIVLTQSPAIMSASPGEKVTISCSANSSVSYMYWYQQKPGSSPKPWIYRTSNLASGVPARFSGSGSGTSYSLTISSMEAEDAATYYCQQYHSYPLTFGAGTKLELK	138	0.23	69.9
7D4 (antibody, V domains shown) VH: QVQLKHSGAELVRPGTSVKMSCKASGYTFTNYWIGWAKQRPGHGLEWIGDIYPGSSFTNSNEKFKGKATLTADKSSSTAYMQFSSLTSEDSAIYYCAKLGRGYWYFDVWGTGTSVTVSA VL: DIVLTQSPAIMSASLGEEITLTCSASSSVSYIHWYQQKSGTSPKLLIYTTSNLASGVPSRFSGSGSGTFYSLTISSVEAEDAADYYCHQWSRYPTFGGGTKLEIK		0.13	21.3
3A9 (antibody, V domains shown) VH: QVQLQQPGAELVRPGSSVKLSCKASGYTFTSYWMHWVKQRPIQGLEWIGNIDPSDSATHYNQKFKDKATLTVDKSSSTAYMHLSSLTSEDSAVYYCARTGIDYGSSYFDYWGQGTILTVSS VL: DIVLTQSPASLAVSLGQRATISCRASQSVSTSSYSYIHWYQQKPGQPPKLLIKYASNLESGVPARFSGSGSGTDFTLNIHPVEEEDTATYYCQHNWEIPRTFGGGTKLEIK	172	0.38	4.46

Reference: patent US20230416362A1 (published 2023)
